These results are taken from US11306156.

Where two headings read alike, the source gives them in different places.

For experiment [1], the target named is tissue factor (TF) antigen (UniProt P13726). Put plainly: SPR, His-captured Fab, TF as analyte, 1:1 fit; estimated (*) from a Fab differing only in L chain tag.
For experiment [2] the target is unchanged. Kind of experiment: SPR, His-captured Fab, TF as analyte; against wild-type D3H44 Fab; KD of this row is an estimated (*) value.
For experiment [3], the target named is D3H44 Fab heavy chain L124R_S186R (H1 of LCCA sets 9516 and 9515).
The target of experiment [4] is D3H44 Fab heavy chain L124E_K145M_Q179E. Put plainly: LCCA, SPR of light chain tags; L1:L2 DNA 1:3 normalized to 1:1; competitor m8.
Experiment [5] concerns the target D3H44 Fab heavy chain L124R_S186R. Described as above.
Experiment [6] deals with D3H44 Fab heavy chain L124R_S186K. The description is as above.
For experiment [7], the target named is D3H44 Fab heavy chain L124R_S186R (H1 of LCCA sets 9516 and 9515). The source holds these as a separate data set.
Experiment [8] concerns the target D3H44 Fab heavy chain L124E_L143D_K145T (H1 of LCCA sets 9214, 9217, 9216, 9219, 9220, 9225, 9228, 9229). Put plainly: LCCA: H1 co-expressed with L1 and L2 (DNA 333:250:749 ng), His-tag capture on SPR chip, light chain tags detected with anti-HA/anti-FLAG; competitor L1 Q124K_V133G_S176R_T178K.
The target of experiment [9] is D3H44 Fab heavy chain L124R_D146N_Q179K (H1 of LCCA sets 9358, 9359, 9357, 9351, 9352, 9353, 9354, 9350). Kind of experiment: LCCA: H1 co-expressed with L1 and L2 (DNA 333:250:749 ng), His-tag capture on SPR chip, light chain tags detected with anti-HA/anti-FLAG; competitor L1 V133G_S176D_T178E_T180E.
For experiment [10] the target is unchanged. Put plainly: LCCA: H1 co-expressed with L1 and L2 (DNA 333:250:749 ng), His-tag capture on SPR chip, light chain tags detected with anti-HA/anti-FLAG; competitor L1 Q124E_V133G_S176D_T178E_T180E.
The target of experiment [11] is D3H44 Fab heavy chain L124E_L143E_K145M (H1 of LCCA sets 9269, 9266, 9267, 9260, 9262, 9263).
Experiment [12] addresses D3H44 Fab heavy chain L124E_L143D_K145T (H1 of LCCA sets 9214, 9217, 9216, 9219, 9220, 9225, 9228, 9229).
The target in experiment [13] is D3H44 Fab heavy chain L124E_L143E_K145M (H1 of LCCA sets 9269, 9266, 9267, 9260, 9262, 9263). Put plainly: LCCA: H1 co-expressed with L1 and L2 (DNA 333:250:749 ng), His-tag capture on SPR chip, light chain tags detected with anti-HA/anti-FLAG; competitor L2 Q124E_V133G_S176D_T178E_T180E.
Experiment [14] addresses D3H44 Fab heavy chain L124E_L143D_K145T (H1 of LCCA sets 9214, 9217, 9216, 9219, 9220, 9225, 9228, 9229). The experiment is described as above.
Experiment [15] has as its target D3H44 Fab heavy chain L124E_L143E_K145M (H1 of LCCA sets 9269, 9266, 9267, 9260, 9262, 9263). Kind of experiment: LCCA: H1 co-expressed with L1 and L2 (DNA 333:250:749 ng), His-tag capture on SPR chip, light chain tags detected with anti-HA/anti-FLAG; competitor L2 V133G_S176D_T178D_T180E.
Experiment [16] deals with D3H44 Fab heavy chain L124E_L143D_K145T (H1 of LCCA sets 9214, 9217, 9216, 9219, 9220, 9225, 9228, 9229). This is another data set of the same source.
Experiment [17] concerns the target D3H44 Fab heavy chain L124R_S186R. Kind of experiment: LCCA, SPR of light chain tags; L1:L2 DNA 1:3 normalized to 1:1; competitor m9.
The target in experiment [18] is D3H44 Fab heavy chain L124E_K145T_Q179E. Described as above.
Experiment [19] has the same target. Put plainly: LCCA, SPR of light chain tags; L1:L2 DNA 1:3 normalized to 1:1; competitor m8.
Experiment [20] concerns the target D3H44 Fab heavy chain L124E_L143E_K145M (H1 of LCCA sets 9269, 9266, 9267, 9260, 9262, 9263). Kind of experiment: LCCA: H1 co-expressed with L1 and L2 (DNA 333:250:749 ng), His-tag capture on SPR chip, light chain tags detected with anti-HA/anti-FLAG; competitor L1 Q124K_V133G_S176R_T178R.
The target is the same in experiment [21]. Kind of experiment: LCCA: H1 co-expressed with L1 and L2 (DNA 333:250:749 ng), His-tag capture on SPR chip, light chain tags detected with anti-HA/anti-FLAG; competitor L1 Q124K_V133G_S176R_T178K.
For experiment [22], the target named is D3H44 Fab heavy chain L124R_D146N_Q179K (H1 of LCCA sets 9358, 9359, 9357, 9351, 9352, 9353, 9354, 9350). Kind of experiment: LCCA: H1 co-expressed with L1 and L2 (DNA 333:250:749 ng), His-tag capture on SPR chip, light chain tags detected with anti-HA/anti-FLAG; competitor L2 Q124K_V133G_Q160K_S176R.
Experiment [23] deals with D3H44 Fab heavy chain L124R_D146N_Q179K. Put plainly: LCCA, SPR of light chain tags; L1:L2 DNA 1:3 normalized to 1:1; competitor m9.
The target is the same in experiment [24]. Kind of experiment: LCCA, SPR of light chain tags; L1:L2 DNA 1:3 normalized to 1:1; competitor m8.
Experiment [25] addresses D3H44 Fab heavy chain L124R_Q179K. The description is as above.
The target in experiment [26] is D3H44 Fab heavy chain L124E_L143E_K145T. Put plainly: LCCA, SPR of light chain tags; L1:L2 DNA 1:3 normalized to 1:1; competitor m10.
Experiment [27] addresses D3H44 Fab heavy chain L124R_S186K. The description is as above.

In general, Kd refers to the concentration at which binding is half-saturated. On to “D3H44 Fab heterodimer H1L1 of LCCA Set # 9104 (H1 L124E; L1 S131T_V133G_S176R_T178Y)”, for which the Kd in experiment [1] was 0.16 nM. Besides, in [2], the Change in median values of KD compared to wild type (-(log(KD design)-log(KD wt))) is -0.01 log.
Take “D3H44 light chain Q124E_V133G_S176D_T178D_T180E”: the median LCCA performance normalized to a L1:L2 DNA ratio of 1:1 (ratio H1-L1:H1-L2), H1-L1 share (ratio part of 100) came to 94 in [3] and 95 in [7]. In addition, the H1L1:H1L2 normalized median ratio (% of heavy chain paired) in experiment [4] was 8. Further, the H2L2:H2L1 normalized median ratio (% of heavy chain paired) in experiment [5] and in experiment [6] was 92 each time. Also, the median LCCA performance normalized to a L1:L2 DNA ratio of 1:1 (ratio H1-L1:H1-L2), H1-L2 share (ratio part of 100) in experiment [8] stood at 15.
For “D3H44 light chain Q124K_V133G_Q160K_S176R”, the median LCCA performance normalized to a L1:L2 DNA ratio of 1:1 (ratio H1-L1:H1-L2), H1-L2 share (ratio part of 100) in [9] was found to be 26; in experiment [10] it was 18.
As to “D3H44 light chain Q124K_V133G_S176R_T178R”, the median LCCA performance normalized to a L1:L2 DNA ratio of 1:1 (ratio H1-L1:H1-L2), H1-L1 share (ratio part of 100) in [11] stood at 87; in [12], 76; in experiment [13] it was 84; in experiment [14], 83; in [15] it was 62; in experiment [16], 87.
For “D3H44 light chain V133G_S176D_T178D_T180E”, the results for the H2L2:H2L1 normalized median ratio (% of heavy chain paired) in experiment [17] and in [5] were 85 and 88, respectively. Further, the H1L1:H1L2 normalized median ratio (% of heavy chain paired) in experiment [18] turned out to be 4; in experiment [4], 6; in experiment [19] it was 5. Besides, the median LCCA performance normalized to a L1:L2 DNA ratio of 1:1 (ratio H1-L1:H1-L2), H1-L2 share (ratio part of 100) in experiment [20] stood at 38; in experiment [21], 37; in experiment [8] it was 18.
With “D3H44 light chain V133G_S176D_T178E_T180E”, the median LCCA performance normalized to a L1:L2 DNA ratio of 1:1 (ratio H1-L1:H1-L2), H1-L1 share (ratio part of 100) in experiment [22] is 74. In addition, the H2L2:H2L1 normalized median ratio (% of heavy chain paired) is 80 in [23], 83 in experiment [24], 93 in [25] and 92 in experiment [27]. For the same substance, the H1L1:H1L2 normalized median ratio (% of heavy chain paired) stood at 3 in [18], 8 in experiment [4], 5 in experiment [19] and 5 in experiment [26].
